According to patent publication US20220235118A1 (IMMUNOME, published 2022):

B1: PR193_00018 (antibody, V domains shown)
VH: EVQLVESGGGLVQPGGSLRLSCSASGFTFSSFWMSWVRQAPGKGLEWVATIREDGSEKYYVDSVKGRFSISRDNAKNSLYLQMNSLRAEDTAVYYCARSKWLRGSFDYWGQGTLVTVSS
VL: NFMLTQPHSVSESPGKTVTISCTRRSGSIASNYVQWYQQRPGSAPTTVIYEDNQRPSGVPDRFSGSIDSSSNSASLTISGLQTEDEADYYCQSYDSSNPPGASWVFGGGTKLTVL
notes: also called IMM20184; IMM200184
B2: PR194_00232 (antibody, V domains shown)
VH: EVQLVESGGGLVQPGGSLRLSCSASGFTVSSNYMSWVRQAPRKGLEWVSVIYAGGSTFYADSVKGRFTISRDNSKNTLLLQMNSLRAEDTAVYYCARDRGGYLDYWGQGTLVTVSS
VL: DIQMTQSPSSLSASVGDRVTITCRASQGISNYLAWYQQKPGKVPKLLIYAASTLQSGVPSRFSGSGSGTDFTLTISSLQPEDVATYYCQKYNSAPGLTFGGGTKVEIK
notes: also called IMM20190; PR194_00190
B3: PR200_00622 (antibody, V domains shown)
VH: QVQLVESGGGVVQPGRSLRLSCTASGFTFSTYGMHWVRQAPGKGLEWVAVISYDGSSKHYAESVKGRFTISRDNSNNTLYLQMNRLRAEDTAVYYCARDGQPPGWGNYFDYWGQGTLVTVAS
VL: SYVLTQPPSVSVAPGKTARITCGGNGIGSKSVYWYQQKPGQAPEVVVYDDSDRPSGIPERFSGSNSGNTATLTISRVEAGDEADYYCQVWDSSSDPWVFGGGTKLTVL
notes: also called IMM20253; PR200_00253

biological target: T1, SARS-CoV-2 Spike S1 domain ΔHV69/70, N501Y, D614G (SARS-CoV-2, UniProt P0DTC2 16-685); assay: HTRF, soluble S1 construct
T1 construct: domain: S1; also called U.K. partial (ΔHV69/70, N501Y D614G)

Binder | EC50 [nM]
B1 | 0.0143
B2 | 0.396
B3 | 0.0216

biological target: T2, SARS-CoV-2 Spike S1 domain A222S, D614G (SARS-CoV-2, UniProt P0DTC2 16-685); assay: HTRF, soluble S1 construct
T2 construct: domain: S1; also called Spanish (A222S, D614G)

Binder | EC50 [nM]
B1 | 0.0269
B2 | 0.0491
B3 | 0.0449

biological target: T3, SARS-CoV-2 Spike S1 domain ΔHV69/70, ΔY144, N501Y, A570D, D614G, P681H (SARS-CoV-2, UniProt P0DTC2 16-685); assay: HTRF, soluble S1 construct
T3 construct: domain: S1; also called U.K. (B.1.1.7); DHV69/70, DY144, N501Y, A570D, D614G, P681H

Binder | EC50 [nM]
B1 | 0.0455
B2 | > 0.5
B3 | 0.0624

biological target: T4, SARS-CoV-2 Spike S1 domain ΔHV69/70, Y453F, D614G (SARS-CoV-2, UniProt P0DTC2 16-685); assay: HTRF, soluble S1 construct
T4 construct: domain: S1; also called Denmark (ΔHV69/70, Y453F, D614G); DHV69/70, Y453F, D614G

Binder | EC50 [nM]
B1 | 0.0316
B2 | 0.0472
B3 | 0.0664

biological target: T5, SARS-CoV-2 Spike S1 domain D614G (SARS-CoV-2, UniProt P0DTC2 16-685); assay: HTRF, soluble S1 construct
T5 construct: domain: S1

Binder | EC50 [nM]
B1 | 0.0397
B2 | 0.0627
B3 | 0.0624

biological target: T6, SARS-CoV-2 Spike S1 domain K417N, E484K, N501Y, D614G (SARS-CoV-2, UniProt P0DTC2 16-685); assay: HTRF, soluble S1 construct
T6 construct: domain: S1; also called S. African (K417N, E484K, N501Y, D614G); B.1.351

Binder | EC50 [nM]
B1 | 0.0267
B2 | 0.23
B3 | 0.0248

biological target: Spike protein D614G (SARS-CoV-2/human/Germany/BavPat 1/2020) on pseudovirus or live virus (SARS-CoV-2, UniProt P0DTC2 14-1273); assay: cell-based or functional assay

Binder | IC50, neutralization of live virus in a virus internalization assay [nM] | IC80, neutralization of live virus in a virus internalization assay [nM] | IC90, neutralization of live virus in a virus internalization assay [nM]
B1 | 33.8 | 126 | 236
B2 | 0.35 | 1.43 | 3.06
B3 | 39.4 | 151 | 289

biological target: Spike protein of the U.K. (B.1.1.7, Alpha) variant on pseudovirus or live virus (SARS-CoV-2, UniProt P0DTC2 14-1273); assay: cell-based or functional assay

Binder | IC50, neutralization of live virus in a virus internalization assay [nM] | IC80, neutralization of live virus in a virus internalization assay [nM] | IC90, neutralization of live virus in a virus internalization assay [nM]
B1 | 43.3 | > 394 | > 394
B2 | 2.66 | 13.7 | > 394
B3 | 1.38 | 61.1 | 219

biological target: T7, SARS-CoV-2 Spike RBD K417N (SARS-CoV-2, UniProt P0DTC2 319-541); assay: HTRF, soluble RBD construct
T7 construct: domain: RBD

Binder | fold over background [fold over background]
B1 | 3.64
B2 | 2.25
B3 | 4.68

biological target: T8, SARS-CoV-2 Spike RBD E406Q (SARS-CoV-2, UniProt P0DTC2 319-541); assay: HTRF, soluble RBD construct
T8 construct: domain: RBD

Binder | fold over background [fold over background]
B1 | 6.58
B2 | 8.81
B3 | 7.6

biological target: T9, SARS-CoV-2 Spike RBD Y453F (SARS-CoV-2, UniProt P0DTC2 319-541); assay: HTRF, soluble RBD construct
T9 construct: domain: RBD

Binder | fold over background [fold over background]
B1 | 4.74
B2 | 5.94
B3 | 4.67

biological target: T10, SARS-CoV-2 Spike RBD N439K (SARS-CoV-2, UniProt P0DTC2 319-541); assay: HTRF, soluble RBD construct
T10 construct: domain: RBD

Binder | fold over background [fold over background]
B1 | 4.43
B2 | 5.95
B3 | 5.05

biological target: T11, SARS-CoV-2 Spike RBD A352S (SARS-CoV-2, UniProt P0DTC2 319-541); assay: HTRF, soluble RBD construct
T11 construct: domain: RBD

Binder | fold over background [fold over background]
B1 | 4.62
B2 | 6.75
B3 | 5.14

biological target: T12, SARS-CoV-2 Spike RBD N501Y (SARS-CoV-2, UniProt P0DTC2 319-541); assay: HTRF, soluble RBD construct
T12 construct: domain: RBD

Binder | fold over background [fold over background]
B1 | 4.92
B2 | 4.3
B3 | 5.11

biological target: T13, SARS-CoV-2 Spike RBD A475V (SARS-CoV-2, UniProt P0DTC2 319-541); assay: HTRF, soluble RBD construct
T13 construct: domain: RBD

Binder | fold over background [fold over background]
B1 | 4.42
B2 | 7.47
B3 | 5.22

biological target: T14, SARS-CoV-2 Spike RBD E484Q (SARS-CoV-2, UniProt P0DTC2 319-541); assay: HTRF, soluble RBD construct
T14 construct: domain: RBD

Binder | EC50 [nM]
B1 | 0.0216
B2 | 0.0524
B3 | 0.0238

biological target: T15, SARS-CoV-2 Spike RBD F486S (SARS-CoV-2, UniProt P0DTC2 319-541); assay: HTRF, soluble RBD construct
T15 construct: domain: RBD

Binder | EC50 [nM]
B1 | 0.0221
B2 | 0.0334
B3 | 0.0259

biological target: T7, SARS-CoV-2 Spike RBD K417N; assay: HTRF, soluble RBD construct; remark: another data set of the same source

Binder | EC50 [nM]
B1 | 0.0437
B2 | > 0.5
B3 | 0.0674

biological target: T16, SARS-CoV-2 Spike RBD E484K (SARS-CoV-2, UniProt P0DTC2 319-541); assay: HTRF, soluble RBD construct
T16 construct: domain: RBD

Binder | EC50 [nM]
B1 | 0.0205
B2 | 0.0334
B3 | 0.0316

biological target: T8, SARS-CoV-2 Spike RBD E406Q; assay: HTRF, soluble RBD construct; remark: another data set of the same source

Binder | EC50 [nM]
B1 | 0.0261
B2 | 0.0677
B3 | 0.0406

biological target: T9, SARS-CoV-2 Spike RBD Y453F; assay: HTRF, soluble RBD construct; remark: another data set of the same source

Binder | EC50 [nM]
B1 | 0.0494
B2 | 0.0646
B3 | 0.0626

biological target: T10, SARS-CoV-2 Spike RBD N439K; assay: HTRF, soluble RBD construct; remark: another data set of the same source

Binder | EC50 [nM]
B1 | 0.051
B2 | 0.0689
B3 | 0.0534

biological target: T11, SARS-CoV-2 Spike RBD A352S; assay: HTRF, soluble RBD construct; remark: another data set of the same source

Binder | EC50 [nM]
B1 | 0.0263
B2 | 0.0219
B3 | 0.0317

biological target: T12, SARS-CoV-2 Spike RBD N501Y; assay: HTRF, soluble RBD construct; remark: another data set of the same source

Binder | EC50 [nM]
B1 | 0.0398
B2 | 0.279
B3 | 0.0585

biological target: T17, SARS-CoV-2 Spike RBD L452R (SARS-CoV-2, UniProt P0DTC2 319-541); assay: HTRF, soluble RBD construct
T17 construct: domain: RBD

Binder | EC50 [nM]
B1 | 0.0436
B2 | 0.0318
B3 | 0.034

biological target: T13, SARS-CoV-2 Spike RBD A475V; assay: HTRF, soluble RBD construct; remark: another data set of the same source

Binder | EC50 [nM]
B1 | 0.0279
B2 | 0.0724
B3 | 0.033

biological target: T18, SARS-CoV-2 Spike RBD K444R (SARS-CoV-2, UniProt P0DTC2 319-541); assay: HTRF, soluble RBD construct
T18 construct: domain: RBD

Binder | EC50 [nM]
B1 | 0.0194
B2 | 0.0258
B3 | 0.0261
